Experimental data from paper PMC8167298, “Structural Investigations of Human A2M Identify a Hollow Native Conformation That Underlies Its Distinctive Protease-Trapping Mechanism” (Molecular & Cellular Proteomics : MCP, 2021).
Numbering of substitutions follows the chain as printed. In names and notes the source's numbering stands.

Experiments:
[1] = target: the molecule itself; assay: nonreducing SDS-PAGE; nonreducing SDS-PAGE on 5 to 15% gradient gels; shows disulfide-linked oligomers; DSSO-cross-linked A2M-MA defines the dimer and tetramer bands
[2] = target: the molecule itself; assay: negative stain electron microscopy; A2M at 78 μg/ml on carbon-coated copper grids, 2% w/v uranyl formate; 2D classes and 3D refinement with D2 symmetry imposed, 24 Å map
[3] = target: the molecule itself; assay: SEC; Sephacryl S-300 HR column in HBS, samples after DSSO cross-linking

B1: Human α2-macroglobulin (A2M), native conformation, plasma-purified (natural protein, UniProt P01023 24-1474, looked up)
chain: SVSGKPQYMVLVPSLLHTETTEKGCVLLSYLNETVTVSASLESVRGNRSLFTDLEAENDVLHCVAFAVPKSSSNEEVMFLTVQVKGPTQEFKKRTTVMVKNEDSLVFVQTDKSIYKPGQTVKFRVVSMDENFHPLNELIPLVYIQDPKGNRIAQWQSFQLEGGLKQFSFPLSSEPFQGSYKVVVQKKSGGRTEHPFTVEEFVLPKFEVQVTVPKIITILEEEMNVSVCGLYTYGKPVPGHVTVSICRKYSDASDCHGEDSQAFCEKFSGQLNSHGCFYQQVKTKVFQLKRKEYEMKLHTEAQIQEEGTVVELTGRQSSEITRTITKLSFVKVDSHFRQGIPFFGQVRLVDGKGVPIPNKVIFIRGNEANYYSNATTDEHGLVQFSINTTNVMGTSLTVRVNYKDRSPCYGYQWVSEEHEEAHHTAYLVFSPSKSFVHLEPMSHELPCGHTQTVQAHYILNGGTLLGLKKLSFYYLIMAKGGIVRTGTHGLLVKQEDMKGHFSISIPVKSDIAPVARLLIYAVLPTGDVIGDSAKYDVENCLANKVDLSFSPSQSLPASHAHLRVTAAPQSVCALRAVDQSVLLMKPDAELSASSVYNLLPEKDLTGFPGPLNDQDNEDCINRHNVYINGITYTPVSSTNEKDMYSFLEDMGLKAFTNSKIRKPKMCPQLQQYEMHGPEGLRVGFYESDVMGRGHARLVHVEEPHTETVRKYFPETWIWDLVVVNSAGVAEVGVTVPDTITEWKAGAFCLSEDAGLGISSTASLRAFQPFFVELTMPYSVIRGEAFTLKATVLNYLPKCIRVSVQLEASPAFLAVPVEKEQAPHCICANGRQTVSWAVTPKSLGNVNFTVSAEALESQELCGTEVPSVPEHGRKDTVIKPLLVEPEGLEKETTFNSLLCPSGGEVSEELSLKLPPNVVEESARASVSVLGDILGSAMQNTQNLLQMPYGCGEQNMVLFAPNIYVLDYLNETQQLTPEIKSKAIGYLNTGYQRQLNYKHYDGSYSTFGERYGRNQGNTWLTAFVLKTFAQARAYIFIDEAHITQALIWLSQRQKDNGCFRSSGSLLNNAIKGGVEDEVTLSAYITIALLEIPLTVTHPVVRNALFCLESAWKTAQEGDHGSHVYTKALLAYAFALAGNQDKRKEVLKSLNEEAVKKDNSVHWERPQKPKAPVGHFYEPQAPSAEVEMTSYVLLAYLTAQPAPTSEDLTSATNIVKWITKQQNAQGGFSSTQDTVVALHALSKYGAATFTRTGKAAQVTIQSSGTFSSKFQVDNNNRLLLQQVSLPELPGEYSMKVTGEGCVYLQTSLKYNILPEKEEFPFALGVQTLPQTCDEPKAHTSFQISLSVSYTGSRSASNMAIVDVKMVSGFIPLKPTVKMLERSNHVSRTEVSSNHVLIYLDKVSNQTLSLFFTVLQDVPVRDLKPAIVKVYDYYETDEFAIAEYNAPCSKDLGNA
modifications: intact thiol ester between the cysteine and glutamine of the CGEQ motif; N-glycans; intersubunit Cys278/Cys431 disulfides in each disulfide-bridged dimer
notes: α2-macroglobulin, human, from plasma; original N-terminus at position 24; Homotetramer of 720 kDa, a dimer of disulfide-bridged dimers; In the cross-linking, SEC and native PAGE rows the protein carried DSSO cross-links; SAXS was also measured on deglycosylated A2M; also called native A2M; plasma A2M; source: purified from plasma from a healthy volunteer, never frozen
With B1 the “stoichiometry N” value [1] was 2 and the “stoichiometry N” value [2] was 4.

B2: A2M^3K, recombinant A2M with the Arg704Lys, Arg715Lys and Arg719Lys mutations (natural protein, human, UniProt P01023 24-1474, looked up)
chain: B1 chain with R681K, R692K, R696K
notes: α2-macroglobulin, human, recombinant; the three bait region arginines replaced with lysines; The protein is secreted into the culture supernatant; also called A2M^3K (R704K R715K R719K); source: HEK293 Freestyle cells, transiently transfected, purified from the supernatant by the protocol used for plasma A2M
For B2, the “stoichiometry N” value [3] was 4.

B3: A2M^LNK/LNK, recombinant A2M with the Thr654Cys and Thr661Cys mutations (natural protein, human, UniProt P01023 24-1474, looked up)
chain: B1 chain with T631C, T638C
modifications: intersubunit disulfide between Cys654 and Cys661 of opposite subunits
notes: α2-macroglobulin, human, recombinant; two cysteines introduced in the LNK region; The protein is secreted into the culture supernatant; also called A2M^LNK/LNK (T654C T661C); source: HEK293 Freestyle cells, transiently transfected, purified from the supernatant by the protocol used for plasma A2M
B3 was tested, and the “stoichiometry N” value [1] was 4.

B4: Recombinant wild-type A2M (natural protein, human, UniProt P01023 24-1474, looked up)
chain: B1 chain
notes: α2-macroglobulin, human, recombinant wild type; source: HEK293 Freestyle cells, transiently transfected, purified from the supernatant by the protocol used for plasma A2M
In the case of B4, the “stoichiometry N” value [1] is reported as 2.
